Test results as given in PMC9122904, “Insights into the client protein release mechanism of the ATP-independent chaperone Spy” (Nature Communications, 2022).

What was measured:
Experiment in all cases: BLI; Octet RED96; client biotinylated and loaded on streptavidin sensors; Spy or Spy variant in solution at 0.25, 0.5, 1, 1.5 and 2 μM; 40 mM HEPES, 150 mM NaCl, pH 7.5; Kd calculated as koff/kon
Conditions in all cases: both partners purified
[1] = molecular target: T1, Spy H65D (UniProt P77754 24-161, H65D)
T1 construct: source: E. coli BL21 (DE3), purified (Ni-NTA, cation exchange, SEC); not shown: His6, N-terminal, cleaved; SUMO, N-terminal, cleaved
T1 sequence (looked up): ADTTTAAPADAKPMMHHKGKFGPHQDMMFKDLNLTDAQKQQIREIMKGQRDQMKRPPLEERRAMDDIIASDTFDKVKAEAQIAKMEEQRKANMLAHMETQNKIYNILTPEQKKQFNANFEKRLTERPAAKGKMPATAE
How it was run: (§1)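 Biolayer interferometry used an Octet RED96: client proteins biotinylated with EZ-link NHS-biotin (1:1 molar ratio) were loaded on streptavidin sensors, dipped into 40 mM HEPES, 150 mM NaCl, pH 7.5 containing Spy protein at 0.25, 0.5, 1, 1.5 and 2 μM, then moved to Spy-free buffer. Wavelength-shift association and dissociation curves were fitted in SigmaPlot 12.0, giving observed association rate and koff. kon came from observed rate versus Spy concentration; Kd was koff/kon.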

[2] = molecular target: T2, Spy D26K R43D (UniProt P77754 24-161, D26K | R43D)
T2 construct: source: E. coli BL21 (DE3), purified (Ni-NTA, cation exchange, SEC); not shown: His6, N-terminal, cleaved; SUMO, N-terminal, cleaved
T2 sequence (looked up): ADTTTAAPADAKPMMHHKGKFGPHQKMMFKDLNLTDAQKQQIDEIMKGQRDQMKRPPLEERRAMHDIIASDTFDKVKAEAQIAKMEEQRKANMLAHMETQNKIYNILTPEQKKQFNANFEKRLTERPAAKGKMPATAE
How it was run: as §1

[3] = molecular target: T3, Spy D26K R50D (UniProt P77754 24-161, D26K | R50D)
T3 construct: source: E. coli BL21 (DE3), purified (Ni-NTA, cation exchange, SEC); not shown: His6, N-terminal, cleaved; SUMO, N-terminal, cleaved
T3 sequence (looked up): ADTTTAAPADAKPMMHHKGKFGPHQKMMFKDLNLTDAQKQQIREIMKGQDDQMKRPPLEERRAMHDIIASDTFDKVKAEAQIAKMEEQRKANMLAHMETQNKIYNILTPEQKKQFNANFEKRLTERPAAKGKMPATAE
How it was run: as §1

[4] = molecular target: T4, Spy D26K H96D (UniProt P77754 24-161, D26K | H96D)
T4 construct: source: E. coli BL21 (DE3), purified (Ni-NTA, cation exchange, SEC); not shown: His6, N-terminal, cleaved; SUMO, N-terminal, cleaved
T4 sequence (looked up): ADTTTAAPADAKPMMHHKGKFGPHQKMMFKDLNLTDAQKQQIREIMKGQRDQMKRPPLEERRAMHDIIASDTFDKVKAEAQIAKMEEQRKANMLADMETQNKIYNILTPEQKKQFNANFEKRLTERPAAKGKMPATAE
How it was run: as §1

[5] = molecular target: T5, Spy_(R89D) (UniProt P77754 24-161, R89D)
T5 construct: source: E. coli BL21 (DE3), purified (Ni-NTA, cation exchange, SEC); not shown: His6, N-terminal, cleaved; SUMO, N-terminal, cleaved
T5 sequence (looked up): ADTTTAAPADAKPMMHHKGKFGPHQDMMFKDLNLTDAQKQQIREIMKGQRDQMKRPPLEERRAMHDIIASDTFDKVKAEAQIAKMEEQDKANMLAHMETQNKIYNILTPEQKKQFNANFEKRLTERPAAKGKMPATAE
How it was run: as §1

[6] = molecular target: T6, Spy_(R61D R62D) (UniProt P77754 24-161, R61D | R62D)
T6 construct: source: E. coli BL21 (DE3), purified (Ni-NTA, cation exchange, SEC); not shown: His6, N-terminal, cleaved; SUMO, N-terminal, cleaved
T6 sequence (looked up): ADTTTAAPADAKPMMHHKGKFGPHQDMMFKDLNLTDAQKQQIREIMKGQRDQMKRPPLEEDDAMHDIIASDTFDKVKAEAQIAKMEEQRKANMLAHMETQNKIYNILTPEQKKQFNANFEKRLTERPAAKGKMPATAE
How it was run: as §1

[7] = molecular target: T7, Spy_(R43D) (UniProt P77754 24-161, R43D)
T7 construct: source: E. coli BL21 (DE3), purified (Ni-NTA, cation exchange, SEC); not shown: His6, N-terminal, cleaved; SUMO, N-terminal, cleaved
T7 sequence (looked up): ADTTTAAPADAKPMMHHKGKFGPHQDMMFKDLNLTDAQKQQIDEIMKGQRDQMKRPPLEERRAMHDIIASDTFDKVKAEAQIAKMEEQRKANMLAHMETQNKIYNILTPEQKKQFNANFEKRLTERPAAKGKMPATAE
How it was run: as §1

[8] = molecular target: T8, Spy D26K K121D R122D (UniProt P77754 24-161, D26K | K121D | R122D)
T8 construct: source: E. coli BL21 (DE3), purified (Ni-NTA, cation exchange, SEC); not shown: His6, N-terminal, cleaved; SUMO, N-terminal, cleaved
T8 sequence (looked up): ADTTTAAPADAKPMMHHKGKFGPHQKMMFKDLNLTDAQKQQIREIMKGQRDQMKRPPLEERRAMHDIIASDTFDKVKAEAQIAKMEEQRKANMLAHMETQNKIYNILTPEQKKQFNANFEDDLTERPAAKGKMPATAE
How it was run: as §1

B1: Im7 H40W L53A I54A (natural protein)
chain: MELKNSISDYTEAEFVQLLKEIEKENVAATDDVLDVLLEWFVKITEHPDGTDAAYYPSDNRDDSPEGIVKEIKEWRAANGKPGFKQG
modifications: biotin (EZ-link NHS-biotin, 1:1 molar ratio of biotin to protein)
notes: Im7 (colicin E7 immunity protein) with H40W L53A I54A; Spy was made with an N-terminal His6-SUMO tag that was cleaved; also called Im7AAW; partially folded client; source: purified by a similar procedure to Spy
koff [1]: 0.427 s⁻¹
koff [2]: 0.202 s⁻¹
koff [3]: 0.147 s⁻¹
koff [4]: 0.172 s⁻¹
koff [5]: 0.105 s⁻¹
koff [6]: 0.0727 s⁻¹
koff [7]: 0.533 s⁻¹
koff [8]: 0.202 s⁻¹
